From article PMC12102759

B1: PRDM14 peptide 196-211 (PR domain zinc finger protein 14), 16-mer library wild type / NSP3 SUD-M (ORF1ab Nsp3c SUD-M, residues 1356-1493) (parent)
chain 1: QFTEEDLHFVLYGVTP
chain 2: LPSIISNEKQEILGTVSWNLREMLAHAEETRKLMPVCVETKAIVSTIQRKYKGIKIQEGVVDYGARFYFYTSKTTVASLINTLNDLNETLVTMPLGYVTHGLNLEEAARYMRSLKVPATVSVSSPDAVTAYNGYLTSS
B2: NCOA2 peptide 1073-1088 (Nuclear receptor coactivator 2), 16-mer library wild type / NSP3 UBl1 (ORF1ab Nsp3a Ub1, residues 819-925) (parent)
chain 1: PSDEGALLDQLYLALR
chain 2: APTKVTFGDDTVIEVQGYKSVNITFELDERIDKVLNEKCSAYTVELGTEVNEFACVVADAVIKTLQPVSELLTPLGIDLDEWSMATYYLFDESGEFKLASHMYCSFY
B3: PEX5 peptide 240-255 (Peroxisomal targeting signal 1 receptor), 16-mer library wild type / PEX14 Pex14 (PEX14 PEX14, residues 16-84) (parent)
chain 1: AEQWAAEFIQQQGTSD
chain 2: TPGSENVLPREPLIATAVKFLQNSRVRQSPLATRRAFLKKKGLTDEEIDMAFQQSGTAADEPSSLGPAT
B4: NYNRIN peptide 1030-1045 (Protein NYNRIN), 16-mer library wild type / NSP3 UBl1 (ORF1ab Nsp3a Ub1, residues 819-925) (parent)
chain 1: EAPSLSEEILRALSLH
chain 2: B2 chain 2

Variants of: B1
Assay: not given
Details: with NSP3 SUD-M (ORF1ab Nsp3c SUD-M, residues 1356-1493); bait immobilised on MaxiSorp plates (10 µg), library pre-cleared on GST, 2 h binding at 4 °C, five washes; one round per day, days 1-4; value from days 2 and 3; keep out of graded; scale: average fractional NGS count over selection days 2 and 3

Variant	screen value
chain 1 E4T	1.11e-05
chain 1 E4D	2.34e-05
chain 1 E4F	1.23e-05
chain 1 E4N	0
chain 1 L7I	1.23e-05
chain 1 L7K	0
chain 1 L7G	0
chain 1 T15M	0
chain 1 T15F	0
chain 1 T15R	0
chain 1 L11T	0
chain 1 L11D	0
chain 1 L11G	0
chain 1 L11M	0
chain 1 L11E	0
chain 1 L11N	0
chain 1 L11A	0
chain 1 Y12F	1.23e-05
chain 1 Y12P	0

Variant	screen value
chain 1 F2Y	0
chain 1 V10N	0
chain 1 V10D	0
chain 1 V10K	0
chain 1 V10H	0
chain 1 V10E	0
chain 1 V14Q	0
chain 1 V14E	3.19e-05
chain 1 V14Y	1.26e-05
chain 1 V14N	3.28e-05
chain 1 V14D	3.47e-05
chain 1 F9D	0
chain 1 T3Q	0
chain 1 T3I	0
chain 1 E5R	0
chain 1 E5S	0
chain 1 P16W	2.83e-05
chain 1 H8P	2.01e-05
chain 1 H8S	2.39e-05

Variants of: B2
Assay: not given
Details: with NSP3 UBl1 (ORF1ab Nsp3a Ub1, residues 819-925); bait immobilised on MaxiSorp plates (10 µg), library pre-cleared on GST, 2 h binding at 4 °C, five washes; one round per day, days 1-4; value from days 2 and 3; keep out of graded; scale: average fractional NGS count over selection days 2 and 3

Variant	screen value
chain 1 D9P	0.000642
chain 1 D9T	7.34e-06
chain 1 D9E	2.36e-05
chain 1 D9S	1.09e-05
chain 1 S2A	1.93e-05
chain 1 S2V	8.33e-06
chain 1 S2L	1.56e-05
chain 1 S2Q	0.000342
chain 1 S2G	1.09e-05
chain 1 S2I	0
chain 1 S2E	0
chain 1 S2F	4.76e-06
chain 1 S2M	8.73e-06
chain 1 S2H	1.09e-05
chain 1 R16M	7.36e-05
chain 1 R16T	0.000892
chain 1 R16Y	0.0506
chain 1 R16F	0.000746
chain 1 R16S	4.51e-05
chain 1 R16I	1.03e-05
chain 1 R16Q	0.00132
chain 1 R16H	0.000164
chain 1 G5T	0
chain 1 G5S	1.04e-05

Variant	screen value
chain 1 G5A	5.46e-06
chain 1 G5I	4.53e-05
chain 1 G5N	0
chain 1 L8S	0
chain 1 L8K	0
chain 1 L8N	0
chain 1 L8E	0
chain 1 L8A	0
chain 1 L8Q	0
chain 1 L8H	0
chain 1 E4F	0
chain 1 E4P	0
chain 1 A6F	1.11e-05
chain 1 A6R	1.8e-05
chain 1 A6M	1.23e-05
chain 1 A6L	2.33e-05
chain 1 A6K	0
chain 1 L11P	0
chain 1 L11D	0
chain 1 L11A	0
chain 1 L11I	0.000119
chain 1 L11K	0
chain 1 L11R	0
chain 1 L11V	9.51e-06

Variant	screen value
chain 1 L11Y	0
chain 1 L7S	0
chain 1 L7Q	0
chain 1 L7T	0
chain 1 L15I	7.04e-06
chain 1 L15N	0
chain 1 A14R	6.24e-06
chain 1 A14Q	0
chain 1 A14Y	0
chain 1 A14I	0
chain 1 A14D	0
chain 1 Q10W	0
chain 1 Q10L	0
chain 1 Q10M	3.19e-06
chain 1 Q10A	0
chain 1 Y12A	0
chain 1 Y12F	0.000754
chain 1 Y12S	0
chain 1 Y12V	0
chain 1 D3N	1.14e-05
chain 1 D3E	7.04e-06
chain 1 L13E	0
chain 1 L13S	0

Variants of: B3
Assay: proteomic peptide phage display deep mutational scan (ProP-PD DMS): M13 P8 16-mer library selected against immobilised GST-tagged bait for four days (rounds), NGS of the eluted pools per day and pseudo-replica
Details: with PEX14 Pex14 (PEX14 PEX14, residues 16-84); bait immobilised on MaxiSorp plates (10 µg), library pre-cleared on GST, 2 h binding at 4 °C, five washes; one round per day, days 1-4; value from days 2 and 3; keep out of graded; scale: average fractional NGS count over selection days 2 and 3

Variant	screen value
chain 1 A5V	0.000326
chain 1 A5P	0.000159
chain 1 A5G	0
chain 1 Q11T	0
chain 1 Q11D	0
chain 1 A1L	0.000125
chain 1 A1F	0.00013
chain 1 A1G	0
chain 1 S15F	9.56e-05
chain 1 S15M	0.000166
chain 1 S15N	0
chain 1 S15E	0.000269
chain 1 Q12R	0
chain 1 Q12T	0.000175
chain 1 Q12N	0.000241
chain 1 W4R	0.000107
chain 1 W4P	0
chain 1 W4Q	0
chain 1 W4H	5.68e-05
chain 1 W4N	0
chain 1 W4L	9.31e-05
chain 1 W4G	6.63e-05
chain 1 W4D	0.000272
chain 1 Q3F	0

Variant	screen value
chain 1 Q3E	0.000171
chain 1 Q3Y	9.56e-05
chain 1 I9P	0.000232
chain 1 I9S	0.00015
chain 1 G13L	0
chain 1 G13R	0
chain 1 G13N	0.000117
chain 1 E7M	0.000317
chain 1 E7P	0.000118
chain 1 E7S	0.000242
chain 1 E7N	0.000491
chain 1 E7F	0.00013
chain 1 E7R	0.000213
chain 1 E2Q	5.27e-05
chain 1 Q10S	0.00027
chain 1 F8V	0
chain 1 F8K	0
chain 1 F8D	0.000118
chain 1 F8I	9.8e-05
chain 1 F8H	0.000234
chain 1 T14Y	0.000275
chain 1 A6H	0.000232
chain 1 A6Q	0.000319

Variants of: B4
Assay: not given
Details: with NSP3 UBl1 (ORF1ab Nsp3a Ub1, residues 819-925); bait immobilised on MaxiSorp plates (10 µg), library pre-cleared on GST, 2 h binding at 4 °C, five washes; one round per day, days 1-4; value from days 2 and 3; keep out of graded; scale: average fractional NGS count over selection days 2 and 3

Variant	screen value
chain 1 A2S	0
chain 1 L10D	0
chain 1 I9A	0
chain 1 I9E	0
chain 1 L13H	0
chain 1 L13R	0
chain 1 L13M	0
chain 1 L13V	0
chain 1 L13F	0
chain 1 R11L	0
chain 1 R11V	0
